This is an account of results in CN113150152A (UNIV XI AN JIAOTONG, dated 2021).

The target of assay [1] is T1, 人TIM-3重组蛋白 (T cell immunoglobulin domain and mucin domain-3) (human, UniProt Q8TDQ0 22-202, limits assumed).
T1 construct: Recombinant protein coated on 96-well plates; The construct is not described; also called TIM-3蛋白
Kind of assay: ELISA, coated TIM-3 recombinant protein, serially diluted nanobody, anti-his detection, GraphPad least-squares fit. (In an ELISA, binding on a coated surface is turned into a signal by an enzyme label.)

Assay [2] concerns the target T1, 人TIM-3重组蛋白 (T cell immunoglobulin …). Kind of assay: same number as the ELISA EC50 of paragraph 67, here called KD.

B1: NbR2G3 (抗人源T细胞表面抑制性分子TIM-3的特异性纳米抗体) (VHH)
VHH: QVQLVESGGGLVQAGGSLRLSCAASGRTISNYNMGWFRQAPGKEREFAAITRSGGSTYYADSAKGRFTISRDNAKNTVYLQMNSLKPDDTAVYYCDAIPEGLVGRNLGYWGQGTQVTVSS
As to B1, the EC50 (as a rule, the concentration needed to bring the measured effect to its halfway point) in assay [1] was determined as 76 nM. Besides, the Kd (usually the constant that tells how readily two partners part at equilibrium) in assay [2] came to 76 nM.
